Experimental data published in article PMC8671467, “A novel Bacillus ligniniphilus catechol 2,3-dioxygenase shows unique substrate preference and metal requirement” (Scientific Reports, 2021).

Legend:
CCc1cccc(O)c1O = assay: purified protein; details: 0.1 M Tris-HCl pH 7.4, 0.1 mM MnCl2, 32.5 °C, 20 µg/mL enzyme, 0.05-1.0 mM substrate
Cc1cccc(O)c1O = assay: purified protein; details: 0.1 M Tris-HCl pH 7.4, 0.1 mM MnCl2, 32.5 °C, 40 µg/mL enzyme, 0.2-1.2 mM substrate

With “BLC23O (Halalkalibacterium ligniniphilum)” the Km (CCc1cccc(O)c1O) was 193 ± 17 µM, the kcat (CCc1cccc(O)c1O) was 0.47 ± 0.09 s⁻¹ and the kcat/Km (CCc1cccc(O)c1O) was 2400 M⁻¹ s⁻¹. It also gave a Km (Cc1cccc(O)c1O) of 418 ± 25 µM, a kcat (Cc1cccc(O)c1O) of 0.2 ± 0.03 s⁻¹ and a kcat/Km (Cc1cccc(O)c1O) of 480 M⁻¹ s⁻¹.
